The target of this assay is T1, α1-antitrypsin (human, UniProt P01009 25-418).
T1 construct: alpha-1-antitrypsin (SERPINA1), human, plasma-derived, 52 kDa; The activity assays used Prolastin; also called α1AT; alpha-1 antitrypsin; source: bought: Merck (A9024) or GRIFOLS (Prolastin), purified from human plasma
The assay can be described thus: SPR; TMPRSS2 amine-coupled (NHS/EDC) on an MUA-functionalised gold chip, Reichert SR7000; α1AT flowed at 0-20 µM in 10 mM HEPES, 150 mM NaCl, 0.05 % Tween-20, pH 7.5, 10 µl/min; equilibrium analysis. The note with it: both partners purified. In general terms: SPR reads the build-up and loss of mass on a sensor chip optically.

As a reminder, the Kd is the equilibrium constant for the complex coming apart.

T1 sequence (P01009 25-418): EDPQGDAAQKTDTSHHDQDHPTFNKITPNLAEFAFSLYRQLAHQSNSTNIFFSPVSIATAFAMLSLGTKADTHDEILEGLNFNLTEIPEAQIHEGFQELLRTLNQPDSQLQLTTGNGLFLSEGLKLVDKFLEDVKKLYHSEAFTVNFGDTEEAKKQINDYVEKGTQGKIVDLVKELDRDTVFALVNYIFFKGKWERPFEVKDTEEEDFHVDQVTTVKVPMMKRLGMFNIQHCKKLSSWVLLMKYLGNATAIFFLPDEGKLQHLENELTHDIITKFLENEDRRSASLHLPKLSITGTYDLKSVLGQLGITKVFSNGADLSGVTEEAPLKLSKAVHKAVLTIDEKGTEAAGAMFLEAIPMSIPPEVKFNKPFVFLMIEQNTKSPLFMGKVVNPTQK

B1: recombinant TMPRSS2 (enzyme)
chain: not shown
notes: TMPRSS2, human, recombinant protein from Creative BioMart; No catalogue number or construct limits are printed; The cell-associated activity assay used TMPRSS2 expressed from Addgene 53887 in HEK293T cells; also called recombinant human TMPRSS2; transmembrane serine protease 2; source: bought: Creative BioMart
Consider B1, for which the Kd came to 941 ± 297 nM.

These data come from paper PMC7979852, “Alpha-1 antitrypsin inhibits TMPRSS2 protease activity and SARS-CoV-2 infection” (Nature Communications, 2021).
